In publication doi:10.1101/2025.07.21.665923 (bioRxiv, 2025):
Where two headings read alike, the source gives them in different places. Blank lines part the entries; values can stand above or below the molecule they belong to. Where no end group is shown, it is not given here. TAMRA = tetramethylrhodamine

How the values were obtained:
[1] = target: URAT1 peptide (15 C-terminal residues of human URAT1), TAMRA-labelled (human); experiment: fluorescence polarisation
[2] = target: NaPi-IIa peptide (15 C-terminal residues of NaPi-IIa), TAMRA-labelled (human (identical in mouse)); experiment: fluorescence polarisation
[3] = target: N-terminally biotinylated URAT1 peptide (human); experiment: SPR
[4] = target: T1, full-length human PDZK1 (NHE3 regulatory factor 3, NHERF3) (human, UniProt Q5T2W1 1-519); experiment: fluorescence polarisation
T1 sequence (looked up): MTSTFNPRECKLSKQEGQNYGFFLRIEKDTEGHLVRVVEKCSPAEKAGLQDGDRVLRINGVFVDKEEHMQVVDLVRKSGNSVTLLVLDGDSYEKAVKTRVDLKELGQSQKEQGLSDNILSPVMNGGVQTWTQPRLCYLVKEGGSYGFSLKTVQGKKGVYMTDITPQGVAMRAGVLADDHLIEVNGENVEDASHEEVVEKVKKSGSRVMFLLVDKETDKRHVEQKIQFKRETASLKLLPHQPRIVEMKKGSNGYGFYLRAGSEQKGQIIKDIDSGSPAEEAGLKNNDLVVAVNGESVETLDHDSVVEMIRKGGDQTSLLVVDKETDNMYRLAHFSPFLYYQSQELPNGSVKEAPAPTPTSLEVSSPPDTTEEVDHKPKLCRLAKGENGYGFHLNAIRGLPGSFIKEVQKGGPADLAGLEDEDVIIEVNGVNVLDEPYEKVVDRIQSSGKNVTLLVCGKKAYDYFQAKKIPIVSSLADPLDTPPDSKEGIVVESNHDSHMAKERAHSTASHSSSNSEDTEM

[5] = target: T2, full-length mouse Pdzk1 (mouse, UniProt Q9JIL4 1-519); experiment: fluorescence polarisation
T2 sequence (looked up): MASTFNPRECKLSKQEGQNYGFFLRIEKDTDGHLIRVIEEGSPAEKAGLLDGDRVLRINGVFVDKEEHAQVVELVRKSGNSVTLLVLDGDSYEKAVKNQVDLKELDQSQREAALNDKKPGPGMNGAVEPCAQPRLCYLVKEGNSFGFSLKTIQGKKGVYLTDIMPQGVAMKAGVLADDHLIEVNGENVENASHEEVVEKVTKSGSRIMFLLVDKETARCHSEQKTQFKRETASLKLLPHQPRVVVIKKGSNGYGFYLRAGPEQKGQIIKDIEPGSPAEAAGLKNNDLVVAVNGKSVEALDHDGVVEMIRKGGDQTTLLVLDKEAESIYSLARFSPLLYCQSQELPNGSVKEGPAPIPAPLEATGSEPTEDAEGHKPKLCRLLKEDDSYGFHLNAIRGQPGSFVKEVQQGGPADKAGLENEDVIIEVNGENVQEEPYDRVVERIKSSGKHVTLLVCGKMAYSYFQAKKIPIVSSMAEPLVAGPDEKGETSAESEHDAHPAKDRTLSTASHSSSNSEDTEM

[6] = target: T3, full-length mouse Nherf1 (mouse, UniProt P70441 1-355); experiment: fluorescence polarisation
T3 sequence (looked up): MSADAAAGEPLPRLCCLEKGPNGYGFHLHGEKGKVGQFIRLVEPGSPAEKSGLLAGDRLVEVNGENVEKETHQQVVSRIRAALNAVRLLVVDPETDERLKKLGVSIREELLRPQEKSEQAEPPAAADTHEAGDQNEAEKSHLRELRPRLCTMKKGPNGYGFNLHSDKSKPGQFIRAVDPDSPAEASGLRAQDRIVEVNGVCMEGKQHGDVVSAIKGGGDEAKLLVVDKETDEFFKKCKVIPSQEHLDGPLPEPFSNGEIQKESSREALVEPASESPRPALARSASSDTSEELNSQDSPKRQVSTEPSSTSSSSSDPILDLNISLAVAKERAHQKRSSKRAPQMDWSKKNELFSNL

[7] = target: T4, full-length human NHERF1 (human, UniProt O14745 1-358); experiment: fluorescence polarisation
T4 sequence (looked up): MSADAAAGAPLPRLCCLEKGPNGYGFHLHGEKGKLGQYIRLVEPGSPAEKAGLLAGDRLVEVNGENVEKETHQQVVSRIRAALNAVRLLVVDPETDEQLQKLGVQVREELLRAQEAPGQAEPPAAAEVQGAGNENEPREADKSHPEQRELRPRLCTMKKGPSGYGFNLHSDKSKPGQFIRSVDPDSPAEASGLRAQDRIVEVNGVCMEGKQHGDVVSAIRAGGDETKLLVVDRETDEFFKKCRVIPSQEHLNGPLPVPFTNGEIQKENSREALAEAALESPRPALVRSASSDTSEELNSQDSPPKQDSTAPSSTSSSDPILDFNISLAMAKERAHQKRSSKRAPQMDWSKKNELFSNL

[8] = target: T1, full-length human PDZK1 (NHE3 …); experiment: SEC
[9] = target: T1, full-length human PDZK1 (NHE3 …); experiment: SEC; remark: listed apart in the source

Kd [1]: > 200 µM
Molecule: PDZ3 domain of human PDZK1 (3PDZ3), C-terminal His8-tag (domain or fragment)

Kd [1]: 0.16 µM
Kd [2]: 12.5 µM
Kd [3]: 1.1 µM
koff [3]: 0.494 s⁻¹
kon [3]: 448000 M⁻¹ s⁻¹
Molecule: PDZ1 domain of human PDZK1 (3PDZ1), tag-less (domain or fragment)

Kd [1]: 1.35 µM
Kd [3]: 1.78 µM
koff [3]: 0.631 s⁻¹
kon [3]: 354000 M⁻¹ s⁻¹
Molecule: PDZ4 domain of human PDZK1 (3PDZ4), C-terminal His8-tag (domain or fragment)

Kd [4]: 8.1 µM
Kd [5]: 4 µM
Kd [6]: 4.9 µM
Kd [7]: 4 µM
Molecule: {TAMRA}-SPRLALPAHHNATRL [NaPi-IIa peptide (15 C-terminal residues of NaPi-IIa), TAMRA-labelled]

Continued, molecule first:

Molecule: PDZ1 domain of human NHERF1 (1PDZ1), C-terminal His8-tag (domain or fragment)
Kd [2]: 4.4 µM

Molecule: PDZ2 domain of human NHERF1 (1PDZ2), C-terminal His8-tag (domain or fragment)
Kd [2]: > 170 µM

Molecule: PDZ2 domain of human PDZK1 (3PDZ2), C-terminal His8-tag (domain or fragment)
Kd [1]: 22.1 µM

Molecule: THGTLGNSVLKSTQF (not fully specified) [URAT1 peptide fused to the C-terminus of enhanced green fluorescent protein (GFP^URAT1)]
stoichiometry N [8]: 1.5 GFP^URAT1 per PDZK1 at the peak maximum
stoichiometry N [9]: 1.4 GFP^URAT1 per PDZK1 at the peak maximum

Molecule: {TAMRA}-THDTPDGSILMSTRL [Urat1 peptide (15 C-terminal residues of murine Urat1), TAMRA-labelled]
Kd [5]: 0.026 µM
Kd [6]: 0.59 µM

Molecule: {TAMRA}-THGTLGNSVLKSTQF [URAT1 peptide (15 C-terminal residues of human URAT1), TAMRA-labelled]
Kd [7]: > 70 µM
